According to US6583276 (TECHNION RESEARCH AND DEVELOPMENT, dated 2003):

B1: VEGF145 (recombinant human vascular endothelial growth factor form of 145 amino acids, exons 1-5, 6a and 8) (ligand)
chain: APMAEGGGQNHHEVVKFMDVYQRSYCHPIETLVDIFQEYPDEIEYIFKPSCVPLMRCGGCCNDEGLECVPTEESNITMQIMRIKPHQGQHIGEMSFLQHNKCECRPKKDRARQEKKSVRGKGKGQKRKRKKSRYKSWSVCDKPRR
notes: Produced in Sf9 insect cells with a recombinant baculovirus and partially purified on heparin-sepharose; also called r-VEGF
B2: VEGF121 (ligand, human, UniProt P15692-9 27-147, looked up)
chain: APMAEGGGQNHHEVVKFMDVYQRSYCHPIETLVDIFQEYPDEIEYIFKPSCVPLMRCGGCCNDEGLECVPTEESNITMQIMRIKPHQGQHIGEMSFLQHNKCECRPKKDRARQEKCDKPRR
notes: mature; VEGF121 isoform of VEGF-A

Molecular target: T1, KDR/flk-1 VEGF receptor of HUVEC cells (human, UniProt P35968 20-1356)
T1 construct: whole, on cells; Endogenous receptor on confluent HUVEC cells
T1 sequence (P35968 20-1356): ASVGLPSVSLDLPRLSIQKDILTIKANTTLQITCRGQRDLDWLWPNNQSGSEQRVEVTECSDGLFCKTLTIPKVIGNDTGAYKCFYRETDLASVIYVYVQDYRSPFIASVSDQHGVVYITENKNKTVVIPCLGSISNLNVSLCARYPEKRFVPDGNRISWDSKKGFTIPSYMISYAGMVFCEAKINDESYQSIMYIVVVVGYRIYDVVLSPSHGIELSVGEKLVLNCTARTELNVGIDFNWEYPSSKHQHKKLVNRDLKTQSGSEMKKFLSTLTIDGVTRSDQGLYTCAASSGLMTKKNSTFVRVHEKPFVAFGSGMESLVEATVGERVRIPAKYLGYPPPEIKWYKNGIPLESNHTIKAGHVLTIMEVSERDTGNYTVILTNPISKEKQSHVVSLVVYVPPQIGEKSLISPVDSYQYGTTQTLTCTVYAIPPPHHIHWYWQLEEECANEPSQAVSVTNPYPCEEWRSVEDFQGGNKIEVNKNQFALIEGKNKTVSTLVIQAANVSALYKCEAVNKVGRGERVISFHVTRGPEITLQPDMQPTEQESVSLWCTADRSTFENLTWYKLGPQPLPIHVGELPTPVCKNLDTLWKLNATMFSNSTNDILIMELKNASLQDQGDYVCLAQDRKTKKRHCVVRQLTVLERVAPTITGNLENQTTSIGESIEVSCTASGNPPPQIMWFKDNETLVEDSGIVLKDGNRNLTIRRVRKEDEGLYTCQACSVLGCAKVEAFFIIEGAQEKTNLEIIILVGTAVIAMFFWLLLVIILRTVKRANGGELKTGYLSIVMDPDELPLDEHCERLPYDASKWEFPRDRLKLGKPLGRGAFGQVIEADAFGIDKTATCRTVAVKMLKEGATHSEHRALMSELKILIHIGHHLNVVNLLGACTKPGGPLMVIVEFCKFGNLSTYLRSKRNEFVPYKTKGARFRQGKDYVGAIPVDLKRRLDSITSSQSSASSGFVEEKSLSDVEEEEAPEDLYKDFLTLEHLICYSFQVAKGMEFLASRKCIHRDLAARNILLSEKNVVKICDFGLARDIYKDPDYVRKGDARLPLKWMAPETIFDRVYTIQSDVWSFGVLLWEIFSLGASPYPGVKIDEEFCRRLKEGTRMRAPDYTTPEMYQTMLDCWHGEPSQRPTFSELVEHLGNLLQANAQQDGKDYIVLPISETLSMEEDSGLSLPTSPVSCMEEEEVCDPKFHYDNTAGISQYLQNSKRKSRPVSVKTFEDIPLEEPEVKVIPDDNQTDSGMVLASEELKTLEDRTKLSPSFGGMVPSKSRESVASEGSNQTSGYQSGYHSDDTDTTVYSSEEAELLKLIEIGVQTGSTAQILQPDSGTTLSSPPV
Assay: overview table, row 'Binding to Flk-1 and Flt-1 receptors'

Binder | binding result
B1 | binds
B2 | binds
